B1: B-6-2-10: monoclonal, pan-reactive anti-duocarmycin antibody derived from hapten B; VH/VL SEQ ID NO:3 and 4 (antibody, listed as Mus musculus, V domains shown)
VH: DVKLVESGGGLVKPGGSLKLSCAASGFTFRTYTMSWVRQTPEKRLEWVATISSGGSYTYYPDSMKGRFTISRDNAKNTLYLQMSSLKSEDTAMYYCTRGPFYDVYYFLFAYWGQGTLVTVSA
VL: QAVVTQESALTTSPGETVTLTCRSSIGAVTTTNYANWVQEKPDHLFTGLIGGTNNRAPGVPARFSGSLIGDKAALTITGAQTEDEAIYFCALWYSNHWVFGGGTKLTVL
B2: A-15-5-4: monoclonal, pan-reactive anti-duocarmycin antibody derived from hapten A; VH/VL SEQ ID NO:1 and 2 (antibody, listed as Mus musculus, V domains shown)
VH: QVQLQQPGAELVKPGASVKLPCKASGYTFISYYMYWVKQRPGQGLEWIGVINPSNGGTTFNEKFKNKATLTVDKSSSTAYLQLSSLTSEDSAVYYCTCLNYYGSSYWYFDVWGAGTTVTVSS
VL: DVVMTQTPLSLPVSLGDQASIFCRSSQSLVHSDGNTYLHWYLQKPGQSPKLLIYTVSNRFSGVPDRFSGSGSGTDFTLKISRVEAEDLGVYFCSQSTHVPWTFGGGTTLEIK
B3: C-16-1-7: monoclonal, pan-reactive anti-duocarmycin antibody derived from hapten C; VH/VL SEQ ID NO:5 and 6 (antibody, listed as Mus musculus, V domains shown)
VH: EVKLVESGGGLVKPGGSLKVSCAASGFTFSSYAMSWVRQIPDKRLEWVASISTGGITYYLDGVKGRFTISRDNARNILYLQMSSLRSEDTAIYYCARWSYAMDYWGQGTSVTVSS
VL: QIVLTQSPAIMSASLGERVTMTCTASSSVSSSYLHWYQQKPGSSPKVWIYSTSNLASGVPARFRGSGSGTSYSLTISSMEAEDAATYYCHQYHRSPPTFGGGTKLEIK

For the assay, the system named is panel of 18 different duocarmycin-containing antibody-drug conjugates having a common DNA alkylating moiety. Put plainly: BIA (Biomolecular Interaction Analysis) assay, surface plasmon resonance, second screening for pan-reactive antibodies. Format: binding. Particulars: anti-hapten mAb captured on polyclonal anti-mouse surface; ADCs 1 to 18 of FIG. 2 injected sequentially, approx. 20 μg/mL, 25° C. The source says: The samples of the supernatant culture fluid are screened with a suitable assay for the selection of pan-reactive antibodies reactive to the antigen. Suitable immunoassays are well known and may be readily determined by the person skilled in the art. A preferred immuno-assay is the Biomolecular Interaction Analysis (BIA) assay in which the sensor chip surface is modified by immobilization of polyclonal anti-mouse which results in a surface that can bind any mouse monoclonal antibodies.
In a specific embodiment of the present invention, the BIA assay is performed using an anti-hapten A, B or C monoclonal antibody captured on a polyclonal anti-mouse surface to a high binding level (capture reagent). Subsequently, a panel of duocarmycin-containing antibody-drug conjugates is injected sequentially and the signal (RU, resonance or responsive units) indicating binding is recorded. The panel of duocarmycin derivatives contain the same DNA alkylating moiety as a common structural moiety (as shown hereinabove), but have a different DNA binding moiety, and/or linker, and/or antibody. Monoclonal, pan-reactive antibodies are selected based on surface plasmon resonance (SPR), which response is directly proportional to the mass increase on the surface. An increase in mass on the surface is a positive binding reaction. Those antibodies binding to at least 3, preferably at least 5, more preferably at least 10, even more preferably at least 15, most preferably at least 18 different duocarmycin-containing antibody-drug conjugates having the same DNA alkylating moiety described hereinabove, are selected as pan-reactive antibodies in accordance with the present invention.
The BIA (Biomolecular Interaction Analysis) assay was used for the selection of monoclonal, pan-reactive antibodies. One flow cell on a CMS sensor chip was immobilized by amine coupling with polyclonal anti-mouse to a level of approx. 16,000 RU. […]
As to B1, the “binding to a panel of 18 different duocarmycin-containing antibody-drug conjugates” value is reported as “show binding”.

As for B2, the “binding to a panel of 18 different duocarmycin-containing antibody-drug conjugates” value is listed as “show binding”. Under B3 stands “show binding”.

Source of the values: patent US20170320965A1, “PAN-REACTIVE ANTIBODIES TO DUOCARMYCINS” (SYNTHON BIOPHARMACEUTICALS B.V., priority 2014, published 2017).
